Test results from paper PMC11463350.

Target: T1, zPol θ (zebrafish DNA polymerase theta, polymerase domain) (Danio rerio (zebrafish), UniProt F1Q4P4 1798-2576)
T1 sequence: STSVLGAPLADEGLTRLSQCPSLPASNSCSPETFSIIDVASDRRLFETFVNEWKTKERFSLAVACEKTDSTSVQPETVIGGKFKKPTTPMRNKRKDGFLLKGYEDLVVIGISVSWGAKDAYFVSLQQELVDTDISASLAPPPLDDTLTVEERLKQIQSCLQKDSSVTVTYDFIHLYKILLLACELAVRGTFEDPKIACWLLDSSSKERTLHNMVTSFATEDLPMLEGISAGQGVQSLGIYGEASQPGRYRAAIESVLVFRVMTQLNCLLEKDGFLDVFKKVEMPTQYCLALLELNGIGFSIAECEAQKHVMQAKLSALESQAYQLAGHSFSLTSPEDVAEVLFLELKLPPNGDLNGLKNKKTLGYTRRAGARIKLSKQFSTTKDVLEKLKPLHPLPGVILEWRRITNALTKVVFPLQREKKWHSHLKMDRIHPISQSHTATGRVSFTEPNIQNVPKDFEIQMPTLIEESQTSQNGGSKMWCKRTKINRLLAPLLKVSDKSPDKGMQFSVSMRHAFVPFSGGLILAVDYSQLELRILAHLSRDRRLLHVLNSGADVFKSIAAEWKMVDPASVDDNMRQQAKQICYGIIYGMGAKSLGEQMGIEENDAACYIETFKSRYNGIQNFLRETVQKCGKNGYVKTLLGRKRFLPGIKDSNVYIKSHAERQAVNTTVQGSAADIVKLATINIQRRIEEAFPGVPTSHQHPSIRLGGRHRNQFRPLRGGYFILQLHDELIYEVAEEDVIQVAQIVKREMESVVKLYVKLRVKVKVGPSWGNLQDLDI
Assay: EMSA

B1: 25/40 undamaged DNA substrate (dsDNA)
DNA 1: TTTGCCTTGACCATGTAACAGAGAG
DNA 2: TCTCTTCTCTCACTCACGCTCTCTGTTACATGGTCAAGGC
Kd: ~19.8 nM
